{"source": "paper PMC7262597", "about": "(2020)", "parents": {"B1": {"name": "Sir2-myc [Drosophila] / GST-Atg8a-WT [Drosophila] (parent complex)", "chain 1": "MMENYEEIRLGHIRSKDLGNQVPDTTQFYPPTKFDFGAEILASTSTEAEAEAEATATTTEPATSELAGKANGEIKTKTLAAREEQEIGANLEHKTKNPTKSMGEDEDDEEEEEEDDEEEEEDDEEGITGTSNEDEDSSSNCSSSVEPDWKLRWLQREFYTGRVPRQVIASIMPHFATGLAGDTDDSVLWDYLAHLLNEPKRRNKLASVNTFDDVISLVKKSQKIIVLTGAGVSVSCGIPDFRSTNGIYARLAHDFPDLPDPQAMFDINYFKRDPRPFYKFAREIYPGEFQPSPCHRFIKMLETKGKLLRNYTQNIDTLERVAGIQRVIECHGSFSTASCTKCRFKCNADALRADIFAQRIPVCPQCQPNKEQSVDASVAVTEEELRQLVENGIMKPDIVFFGEGLPDEYHTVMATDKDVCDLLIVIGSSLKVRPVAHIPSSIPATVPQILINREQLHHLKFDVELLGDSDVIINQICHRLSDNDDCWRQLCCDESVLTESKELMPPEHSNHHLHHHLLHHRHCSSESERQSQLDTDTQSIKSNSSADYILGSAGTCSDSGFESSTFSCGKRSTAAEAAAIERIKTDILVELNETTALSCDRLGLEGPQTTVESYRHLSIDSSKDSGIEQCDNEATPSYVRPSNLVQETKTVAPSLTPIPQQRGKRQTAAERLQPGTFYSHTNNYSYVFPGAQVFWDNDYSDDDDEEEERSHNRHSDLFGNVGHNYKDDDEDACDLNAVPLSPLLPPSLEAHIVTDIVNGSNEPLPNSSPGQKRTACIIEQQPTPAIETEIPPLKKRRPSEENKQQTQIERSEESPPPGQLAAV", "chain 2": "MKFQYKEEHAFEKRRAEGDKIRRKYPDRVPVIVEKAPKARIGDLDKKKYLVPSDLTVGQFYFLIRKRIHLRPEDALFFFVNNVIPPTSATMGSLYQEHHEEDYFLYIAYSDENVYGMAKIN"}}}
{"variants_of": "B1", "assay": "GST pull-down from larval lysate, anti-myc immunoblot, quantified; parent: 1; read off a plot"}
{"variant": "chain 2 Y49A", "ratio to parent": "~0.21"}
